Assay results published in US20050048594.

Columns and labels:
[1] = test system: T1, CF3-CO N-capped-AKTide (CF3-CO-ARKRERAYSFGHHA)
T1 sequence: ARKRERAYSFGHHA

[2] = test system: T2, peptide ARKRERAF(3-CF3)SFGHHA
T2 sequence: ARKRERAFSFGHHA

“WtAKT1 recombinant protein (activated protein Ser/Thr kinase AKT1)” was tested, and the “phosphorylation of the peptide followed by 19F NMR (time to complete conversion; 50 nM AKT1, 30 uM peptide, 131 uM ATP)” value [1] was “The enzymatic reaction is complete after 149 minutes and only the signal of the phosphorylated peptide is visible in the spectrum” and the “phosphorylation of the peptide followed by 19F NMR (25 nM AKT1)” value [2] was “The peptide is a good substrate for AKT1 and trypsin”.
